Target: T1, biotinylated human D-C5a (mirror-image C5a) (Homo sapiens) (UniProt P01031)
T1 sequence: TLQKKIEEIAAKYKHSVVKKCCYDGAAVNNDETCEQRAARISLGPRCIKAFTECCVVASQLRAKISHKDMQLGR
Assay: pulldown

Sequence	Kd (37 C, 1 mM MgCl2, 1 mM CaCl2) [nM]	further results
AGCGUGCUCGUCCGAUUGGCGGCACCCUUGCGGGACUGGGGAGUACGCU [172-D7-003]	–	Kd (U to C at 3' end of 5'-terminal stretch): 372 nM
AGCGUGCUUGUCCGAUUGGCGGCACCCUUGCGGGACUGGGGAGUACGCU [172-D7-000]	30	–
GCUGAACACGCCGCGUAGGACCCAAUGGGUAGAAUGGGCAGC [179-A3-015]	–	Kd (reference for type C ranking): > 7.2 nM
GCUGGGCGUGUUUACUUGCUUAAUAGGGGGCCCAGC [185-H3-001]	5	–
GUACUGCGUUCGGACGUGGCAUGUUCCUUGACAAACGGUUGGCAGUAC [182-E5]	2.4	–
GUGCUGAACACGCCGCGUAGGACUUCAAUGGAGUAGAAUGGGCAGCAC [179-A3]	7.2	–
GUGCUGCGUUCGGACGUGGCAUGUUCCUUGACAAACGGUUGGCAGCAC [182-C5]	2.2	–
GUGCUGGGUUCGGACGUGGCAUGUUCCUUGAUAAACGGUUGCCAGCAC [182-A8]	3.2	–
GUGCUUGUCCGAUUGGCGGCACCCUUGCGGGACUGGGGAGUAC [172-D7-002]	–	Kd (six base pair terminal helix): 108 nM

Source: patent US20110046207
